Data taken from US20240150460A1 (SHENGHE CHINA BIOPHARMACEUTICAL, published 2024).
Blank lines part the entries; values can stand above or below the molecule they belong to.

How the values were obtained:
[1] = biological target: T1, NKp30 on NK cells (UniProt O14931 19-201, limits assumed); assay: flow cytometry (y axis MFI, x axis in nM); the legend of FIGS. 3a-3h names a stable expression cell line; fit value of a flat curve, far outside the range tested
T1 sequence (looked up): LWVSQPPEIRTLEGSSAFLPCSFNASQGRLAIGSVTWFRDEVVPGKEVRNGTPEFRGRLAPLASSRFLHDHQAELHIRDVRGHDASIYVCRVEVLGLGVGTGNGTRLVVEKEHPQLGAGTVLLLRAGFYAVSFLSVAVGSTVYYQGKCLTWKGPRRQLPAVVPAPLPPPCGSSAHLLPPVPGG

[2] = biological target: T2, human NKp30-his protein (KACTUS; Cat: NKP-HM430) (human, UniProt O14931 19-135, limits assumed); assay: ELISA, Human-NKp30-His coated at 0.2 µg/mL, antibody from 10 µg/mL in 3-fold steps, goat anti-human Fc, OD450 (Example 11)
T2 construct: Bought protein (KACTUS NKP-HM430); not shown: His tag
T2 sequence (looked up): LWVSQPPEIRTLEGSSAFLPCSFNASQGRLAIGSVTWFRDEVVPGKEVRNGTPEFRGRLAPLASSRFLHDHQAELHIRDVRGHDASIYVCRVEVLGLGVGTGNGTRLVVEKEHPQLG
Method: (§1) Human-NKp30-His (purchased from KACTUS, item No. NKP-HM430) was diluted to 0.2 μg/mL with the coating solution (1×PBS, pH 7.4), and was coated into 96-well enzyme-labelled plates at 100 μL/well and allowed to stand overnight at 4° C. The coating solution was poured off, the plate was washed with 1×PBST at 300 μL/well, washed with a plate washer for 4 times, and patted dry on a plate paper. The plate was blocked with 3% skimmed milk powder at 300 μL/well, and incubated at 37° C. for 1 h. The blocking solution was poured off, washed with a plate washer for 4 times, and patted dry on a plate paper. The reference product and the test product were diluted with 3% skimmed milk powder to 10 μg/mL, and the initial concentration was diluted by 3 times. A total of 11 gradients were diluted, and another blank well was set, and only diluent was added. It was incubated at 37° C. and 100 μL/well for 1 h. Liquid in the wells was discarded, and washed with a plate washer for 4 times, and patted dry on a plate paper. The goat anti-human Fc was diluted with 3% skimmed milk powder at 1: 20,000 and 100 μL/well, and incubated at 37° C. for 1 h. The plate was washed with a plate washer for 6 times, and patted dry on a plate paper. TMB color developing solution was added at 100 μL/well, and wrapped with an aluminum foil, and the color was developed at 37° C. for 8 minutes, protected from light. The termination solution 1 M HCl was added at 100 μL/well to terminate the color development reaction. It was read at 450 nm on an enzyme-labeled instrument.

[3] = biological target: T1, NKp30 on NK cells; assay: cell-based or functional assay
[4] = biological target: T2, human NKp30-his protein (KACTUS; Cat: …); assay: ELISA, Human-NKp30-His coated at 0.2 µg/mL, antibody from 10 µg/mL in 3-fold steps, goat anti-human Fc, OD450 (Example 11); remark: listed apart in the source
Method: as §1, with “TMB color developing solution was added at 100 μL/well, and wrapped with an aluminum foil, and the color was developed at 37° C. for 8 minutes, protected from light. The termination solution 1 M HCl was added at 100 μL/well to terminate the color development reaction.” left out

[5] = biological target: T2, human NKp30-his protein (KACTUS; Cat: …); assay: BLI (Octet Red96e), antibody captured on AHC sensor, 100 nM human NKp30-his in solution, 1:1 fit
Method: (§2) After equilibration of the AHC sensor with 0.02% PBST (0.02% Tween 20, pH 7.4, 1*PBS) as buffer for 60 s, the NKp30 antibody in the sample plate was immobilized for 300 s and second equilibration was performed for 180 s. […] human NKp30-his protein (KACTUS; Cat: NKP-HM430) was bound with NKp30 antibody for 300 s and then dissociated for 600 s. After dissociation, 10 mM glycine (pH 2.0) was used as regeneration buffer to regenerate for 30 s.
Subtract the result plot for reference channel H1 from the test result plot. The experimental data fit the 1:1 binding model. The molecular weight of 35 kDa was used to calculate the molar concentration of human NKp30 protein.

[6] = biological target: T2, human NKp30-his protein (KACTUS; Cat: …); assay: ELISA, Human-NKp30-His coated at 0.2 µg/mL, antibody from 10 µg/mL in 3-fold steps, goat anti-human Fc, OD450 (Example 11); remark: listed apart in the source
Method: as §1

[7] = biological target: T2, human NKp30-his protein (KACTUS; Cat: …); assay: BLI (Octet Red96e), method of Example 6: antibody on AHC sensor, human NKp30-his in solution; second run, Table 4 (Example 12 series with the CDR-modified and humanized variants)
Method: as §2
(§3) The affinity of the CDR-modified and humanized antibodies was tested according to the method of Example 6, and the results are shown in Table 4.

[8] = biological target: T1, NKp30 on NK cells; assay: flow cytometry (y axis MFI, x axis in nM); the legend of FIGS. 3a-3h names a stable expression cell line; Example 11 describes no cell assay
[9] = biological target: T2, human NKp30-his protein (KACTUS; Cat: …); assay: BLI (Octet Red96e), method of Example 6: antibody on AHC sensor, human NKp30-his in solution
Method: as §2, §3

[10] = biological target: T2, human NKp30-his protein (KACTUS; Cat: …); assay: ELISA, Human-NKp30-His coated at 0.2 µg/mL, antibody from 10 µg/mL in 3-fold steps, goat anti-human Fc, OD450 (Example 11); the fit value lies above the highest concentration tested
Method: as §1, with “TMB color developing solution was added at 100 μL/well, and wrapped with an aluminum foil, and the color was developed at 37° C. for 8 minutes, protected from light. The termination solution 1 M HCl was added at 100 μL/well to terminate the color development reaction.” left out

[11] = biological target: T2, human NKp30-his protein (KACTUS; Cat: …); assay: ELISA, Human-NKp30-His coated at 0.2 µg/mL, antibody from 10 µg/mL in 3-fold steps, goat anti-human Fc, OD450 (Example 11); the curve stays low: fitted plateau about OD450 0.25, highest point about 0.4 at 3.3 µg/mL, about 0.2 at 10 µg/mL
Method: as §1, with “TMB color developing solution was added at 100 μL/well, and wrapped with an aluminum foil, and the color was developed at 37° C. for 8 minutes, protected from light. The termination solution 1 M HCl was added at 100 μL/well to terminate the color development reaction.” left out

- EC50 [1]: 241000 nM
Molecule: isotype control antibody

- EC50 [2]: 8.48 ng/mL
- IFN-γ secretion by NK cells stimulated with plate-coated antibody, EC50 [3]: 8.83 nM
B1: antibody 18-hu3 (antibody, V domains shown)
VH: EVQLVESGGGLVQPGGSLRLSCAASGIRFSIANMGWYRQAPGKLHEMVAGITSDGFTNYADSVKGRFTISRDNSKNTLYLQMNSLRAEDTAVYYCASFPTRHYWGQGTLVTVSS
notes: also called humanized antibody 18-hu3

- EC50 [4]: 3.62 ng/mL
- EC50 [2]: 2.51 ng/mL
- Kd [5]: 0.302 nM
B2: antibody 18 (antibody, V domains shown)
VH: EVQLVESGGGLVQPGGSLRLSCAAAGIRFSIANMGWYRQAPGKLHEMVAGITSDGFTNYADSVKGRFTISRDNAKNTVYLQMNNLKPEDTAVYYCDSFPTRHYWGQGTQVTVSS
notes: expressed in CHO cells; also called chimeric antibody 18

- EC50 [4]: 17 ng/mL
B3: antibody 18-hu4 (antibody, V domains shown)
VH: EVQLVESGGGLVQPGGSLRLSCAASGIRFSIANMGWYRQAPGKLHEMVAGITSDGFTNYADSVKGRFTISRDNSKNTLYLQMNSLRAEDTAVYYCDSFPTRHYWGQGTLVTVSS

- EC50 [2]: 7.46 ng/mL
- EC50 (read off the curve) [2]: ~7 ng/mL
- EC50 [6]: 2.38 ng/mL
- Kd [7]: 0.844 nM
- EC50 [8]: 0.658 nM
- Kd [5]: 2.34 nM
B4: antibody 23 (antibody, V domains shown)
VH: EVQLVESGGGLVQPGGSLRLSCAASGSIFSPNGIGWYRQAPGKLRELVAGITGNGLTDYADSVKGRFTISRDSAKNTVYLQMNSLKTEDTAVYYCNLLLNHAEWGQGTQVTVSS
notes: expressed in CHO cells; also called chimeric antibody 23

- Kd [9]: 1.27 nM
- EC50 [8]: 0.493 nM
B5: antibody 23-p (antibody, V domains shown)
VH: EVQLVESGGGLVQPGGSLRLSCAASGSIFSPNGIGWYRQAPGKLRELVAGITGNGLTDYAESVKGRFTISRDSAKNTVYLQMNSLKTEDTAVYYCNLLLNHAEWGQGTQVTVSS

- Kd [9]: 5.1 nM
- EC50 [10]: 76200 ng/mL
B6: antibody 23-hu48 (antibody, V domains shown)
VH: EVQLVESGGGLVQPGGSLRLSCAASGSIFSPNAIGWYRQAPGKGRELVSGITGNGLTDYAESVKGRFTISRDNSKNTVYLQMNSLRAEDTAVYYCALLLNHAEWGQGTLVTVSS

- Kd [9]: 1.3 nM
B7: antibody 23-hu44 (antibody, V domains shown)
VH: EVQLVESGGGLVQPGGSLRLSCAASGSIFSPNGIGWYRQAPGKGRELVSGITGNGLTDYAESVKGRFTISRDNSKNTVYLQMNSLRAEDTAVYYCALLLNHAEWGQGTLVTVSS

- Kd [9]: 5.93 nM
- EC50 [11]: 230 ng/mL
B8: antibody 23-hu52 (antibody, V domains shown)
VH: EVQLVESGGGLVQPGGSLRLSCAASGSIFSPQGIGWYRQAPGKGRELVSGITGNGLTDYAESVKGRFTISRDNSKNTVYLQMNSLRAEDTAVYYCALLLNHAEWGQGTLVTVSS

- EC50 (read off the curve) [2]: ~3 ng/mL
- EC50 [6]: 2.83 ng/mL
- Kd [9]: 0.991 nM
B9: antibody 23-hu45 (antibody, V domains shown)
VH: EVQLVESGGGLVQPGGSLRLSCAASGSIFSPNGIGWYRQAPGKLRELVAGITGNGLTDYAESVKGRFTISRDNSKNTVYLQMNSLRAEDTAVYYCNLLLNHAEWGQGTLVTVSS

- EC50 [6]: 2.27 ng/mL
B10: antibody 23-hu49 (antibody, V domains shown)
VH: EVQLVESGGGLVQPGGSLRLSCAASGSIFSPNAIGWYRQAPGKLRELVAGITGNGLTDYAESVKGRFTISRDNSKNTVYLQMNSLRAEDTAVYYCNLLLNHAEWGQGTLVTVSS
